According to the supplement of paper PMC6379048:

Legend:
Test in all cases: EC50 of free RNA motif oligo competing protein binding to immobilised probe
RBM38 = molecular target: T1, RBM38 (UniProt Q9H0Z9)
T1 sequence: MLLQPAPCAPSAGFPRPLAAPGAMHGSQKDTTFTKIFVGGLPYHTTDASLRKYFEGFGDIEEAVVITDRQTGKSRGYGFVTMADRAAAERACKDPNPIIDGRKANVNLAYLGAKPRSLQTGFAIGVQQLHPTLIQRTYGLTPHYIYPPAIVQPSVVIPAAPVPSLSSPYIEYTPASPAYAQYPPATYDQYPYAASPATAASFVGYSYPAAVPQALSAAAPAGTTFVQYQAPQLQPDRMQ
Outline: (§1)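 Kd was calculated as EC50, taken from a four-parameter log-logistic fit, multiplied by a protein-dependent depletion factor. The assay used HEK293-FT lysate (2.5 mg protein/well) pre-incubated for 1 h at 4°C with free RNA oligos (0 nM to 30 μM), then incubated for 30 min at 4°C with the matching oligos bound through a 5′-amino-C6 linker to NHS-Sepharose beads. Bound proteins were measured by label-free LC-MS/MS and normalised to the control.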

SRSF10 = SRSF10 (UniProt O75494)
Outline: as §1

RPL7 = RPL7 (UniProt P18124)
Outline: as §1

PABPN1 = molecular target: T2, PABPN1 (UniProt Q86U42)
T2 sequence: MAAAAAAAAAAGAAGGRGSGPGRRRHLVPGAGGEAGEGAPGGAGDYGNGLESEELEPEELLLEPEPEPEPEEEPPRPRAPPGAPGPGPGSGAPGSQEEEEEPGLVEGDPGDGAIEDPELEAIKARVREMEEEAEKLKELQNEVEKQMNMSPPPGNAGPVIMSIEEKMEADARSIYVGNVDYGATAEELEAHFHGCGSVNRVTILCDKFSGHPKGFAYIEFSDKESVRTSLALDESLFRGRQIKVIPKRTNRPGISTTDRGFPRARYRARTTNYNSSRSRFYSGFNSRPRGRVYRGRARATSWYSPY
Outline: as §1

RBM14 = molecular target: T3, RBM14 (UniProt Q96PK6)
T3 sequence: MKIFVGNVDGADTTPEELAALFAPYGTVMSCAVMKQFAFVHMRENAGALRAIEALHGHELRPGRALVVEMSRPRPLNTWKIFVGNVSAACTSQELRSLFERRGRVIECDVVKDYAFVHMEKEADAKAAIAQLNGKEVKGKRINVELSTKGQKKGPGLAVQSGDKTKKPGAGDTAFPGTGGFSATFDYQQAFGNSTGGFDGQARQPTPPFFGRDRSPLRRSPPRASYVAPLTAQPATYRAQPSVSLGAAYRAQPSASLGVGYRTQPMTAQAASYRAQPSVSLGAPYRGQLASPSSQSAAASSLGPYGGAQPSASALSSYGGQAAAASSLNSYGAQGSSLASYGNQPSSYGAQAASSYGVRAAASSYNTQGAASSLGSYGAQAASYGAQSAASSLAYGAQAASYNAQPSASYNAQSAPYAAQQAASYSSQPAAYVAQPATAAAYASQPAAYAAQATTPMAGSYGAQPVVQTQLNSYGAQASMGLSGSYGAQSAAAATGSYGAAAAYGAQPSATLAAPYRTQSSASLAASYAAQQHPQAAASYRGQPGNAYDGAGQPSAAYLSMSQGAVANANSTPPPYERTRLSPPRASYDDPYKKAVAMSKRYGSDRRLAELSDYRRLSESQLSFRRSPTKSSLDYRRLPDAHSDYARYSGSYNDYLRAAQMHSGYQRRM
Outline: as §1

MKRN2 = molecular target: T4, MKRN2 (UniProt Q9H000)
T4 sequence: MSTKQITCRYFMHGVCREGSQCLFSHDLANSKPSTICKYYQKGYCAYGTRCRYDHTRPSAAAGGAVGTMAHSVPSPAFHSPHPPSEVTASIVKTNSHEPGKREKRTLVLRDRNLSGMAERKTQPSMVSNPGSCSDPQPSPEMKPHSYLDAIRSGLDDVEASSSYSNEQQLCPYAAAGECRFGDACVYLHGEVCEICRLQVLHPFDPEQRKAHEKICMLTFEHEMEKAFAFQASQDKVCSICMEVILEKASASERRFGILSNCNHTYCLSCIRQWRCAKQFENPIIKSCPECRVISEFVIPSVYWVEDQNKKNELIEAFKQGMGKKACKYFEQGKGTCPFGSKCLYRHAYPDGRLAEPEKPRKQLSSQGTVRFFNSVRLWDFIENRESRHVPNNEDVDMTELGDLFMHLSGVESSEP
Outline: as §1

TSNAX = molecular target: T5, TSNAX (UniProt Q99598)
T5 sequence: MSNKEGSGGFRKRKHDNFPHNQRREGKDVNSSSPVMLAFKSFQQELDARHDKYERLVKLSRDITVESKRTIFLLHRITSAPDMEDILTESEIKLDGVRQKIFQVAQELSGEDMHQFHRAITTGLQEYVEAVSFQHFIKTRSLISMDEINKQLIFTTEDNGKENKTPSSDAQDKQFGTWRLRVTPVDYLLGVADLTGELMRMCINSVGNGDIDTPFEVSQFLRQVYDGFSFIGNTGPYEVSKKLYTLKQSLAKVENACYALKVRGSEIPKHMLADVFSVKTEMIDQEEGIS
Outline: as §1

RPS18 = RPS18 (UniProt P62269)
Outline: as §1

Sequence of SRSF10 (O75494 whole entry): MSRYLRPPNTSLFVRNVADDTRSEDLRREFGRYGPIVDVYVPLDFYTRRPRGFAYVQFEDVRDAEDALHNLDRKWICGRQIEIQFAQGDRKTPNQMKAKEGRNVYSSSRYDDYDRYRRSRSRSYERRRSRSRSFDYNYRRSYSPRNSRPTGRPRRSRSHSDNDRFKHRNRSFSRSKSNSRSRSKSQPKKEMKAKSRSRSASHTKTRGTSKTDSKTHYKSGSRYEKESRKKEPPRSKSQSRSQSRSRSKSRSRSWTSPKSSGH

Sequence UAUUUAU has an EC50 (RBM38) of 2910 nM.

With AAUAAA the EC50 (SRSF10) was 1150 nM, the EC50 (RPL7) was 6980 nM and the EC50 (PABPN1) was 3520 nM. The EC50 (RBM14) was 1980 nM, the EC50 (MKRN2) was 3550 nM and the EC50 (TSNAX) was 30.5 nM.

CUGUCCU gave an EC50 (RPS18) of 89.4 nM.
